The record followed here is the nanobody polyreactivity screen of Harvey et al. (2022).

A short description of this data set: yeast display, Sf9 membrane polyspecificity reagent, FACS + sequencing; frameworks hold sequencing errors. The essentials: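 A nanobody's polyreactivity label depends on the gate it was sorted from. Yeast display cells were stained with 10% biotinylated, detergent-solubilized Sf9 membrane reagent for 1 hour at 4 °C, enriched on streptavidin microbeads and sorted by FACS. The low and high (top ~1%) gates were set on anti-HA fluorescence for expression and streptavidin fluorescence for reagent binding.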
Regarding “QVQLVESAGGLVQAGGSLRLSCAASGFIFRFNAMGWYRQAPGKERELVAAISWSGSSTYYADSVKGRFTISRDNAKNTVYLQMNSLKPEDTAVYYCATSAFYYKIVKGDFYYWGQGTQVTVSS”, the “polyreactivity (PSR sort gate)” value was “high polyreactivity”. Consider “QVQLVESAGGLVQAGGSLRLSCAASGFTFIGYVMGWYRQAPGKERELVAAITSGGDTNYADSVKGRFTISRDNAKNTVYLQMNSLKPEDTAVYYCNKGAYWVEYAYIEGELDYWGQGTQVTVSS”, for which the “polyreactivity (PSR sort gate)” value was “low polyreactivity”. “QVQLVESAGGLVQAGGSLRLSCAASGFTFREYAMGWYRQAPGKERELVADIDWSGGSTYYADSVKGRFTISRDNAKNTFYLQMNSLKPEDTAVYYCAKAYYPGVYWGQGTQVTVSS”: the “polyreactivity (PSR sort gate)” value is recorded as “high polyreactivity”. Consider “QVQLVESAGGLVQAGGSLRLSCAASGFTFSSYVMGWYRQAPGKARELVAAISSSGARTYYADSVKGRFTISRDNAKNTVYLQMNSLKPEDNADYYCAAENSPRPYDYWGQGTQVTVSS”, for which the “polyreactivity (PSR sort gate)” value is “high polyreactivity”. The result for “QVQLVESAGGLVQAGGSLRLSCAASGGIFVFYAMGWYRQAPGKERELVAAITYRGGSTSYADSVKGRFTISRDHAKNTVYLQLNSVKPEDTAVYYCAAAFYAKGQRYGYWGHGTQVTVSS” reads “high polyreactivity”; that for “QVQLVESAGGLVQAGGSLRLSCAASGIIFRPNPLGWYRQAPGKERELVAAISKRGGSTYYADSVKGRFTISRDNAKNTVYLQMNSLKPEDTAVYYCAKRQQQSSGYDYWGQGTQVTVSS”, “high polyreactivity”; that for “QVQLVESAGGLVQAGGSLRLSCAASGIIFTPNPMGWYRQAPGKEREFVAAINYGGDTTYYADSVKGRFTISRNNAKNTVYLQMNRLKPEDTAVYYCATDGTTPTPRDAFVRFDHWGQGTQVTVSS”, “low polyreactivity”.

Turning to “QVQLVESAGGLVQAGGSLRLSCAASGITFSGYAMGWYRQAPGKERELVAAISWRGVRTYYADSVKGRFTISRDNAKNTVYLQMNSLKPEDTAVYYCAAVRYITKEFYWGQGTQVTVSS”, the “polyreactivity (PSR sort gate)” value was “high polyreactivity”. The result for “QVQLVESAGGLVQAGGSLRLSCAASGLIIYYYAMGWYRPAPGKERELVAAISGSSGASTYYADSVKGRFTISRDNAKNTVYLQMNSLKPEDTAVYYCNADWARLWIRSTEFDYWGQGTQVTVSS” reads “low polyreactivity”; that for “QVQLVESAGGLVQAGGSLRLSCAASGRIFQFYAMGWYRQARGKERELVAVITRRGGSTHYADSVKGRFTISRDTAKNTVYLQMNILKPEDTAVYYCAKVPFHFVSPYDYWGQGTQVTVSS”, “high polyreactivity”; that for “QVQLVESAGGLVQAGGSLRLSCAASGRIFSTYAMGWYRQAPGKERELVAAISWRGSSTYYADSVKGRFTISRDHAKNTVYLQMNSLKPEDTAVYYCNADKANRYDWGQGTQVTVSS”, “high polyreactivity”. For “QVQLVESAGGLVQAGGSLRLSCAASGRIFVYYAMGGYRKAPGKERELVAAISDSDDSSYYADSVKGRFTISRDNAKNTVYLQMNSLKPEDTAVYYCAAEGDIGGDDYYWGQGTQLTVSS” the value was “high polyreactivity”. As for “QVQLVESAGGLVQAGGSLRLSCAASGRIFWGNAMGWYRQAPGKERELVAAITRRGGTKFYADSVKGRFTISRDNAKNTVYLQMNSLIPEDTAVYYCAARRYGQYDGYDSWGQGTQVTVSS”, the “polyreactivity (PSR sort gate)” value is given as “high polyreactivity”. “QVQLVESAGGLVQAGGSLRLSCAASGRILFGYAMGWYRQAPGKERELVADITSTGSTNYADSVKGRFTISRDNAKNTVYLQMNSLKPEDTAVYYCNVDDTSWTTSGGRFGQVESDYWGQGTQVTVSS”: the “polyreactivity (PSR sort gate)” value is “low polyreactivity”. With “QVQLVESAGGLVQAGGSLRLSCAASGRTFGRYAMGGYRQAPGKERELVAGISGSVGITYYADSVKGRFTISRDNAKNTVYLQMNSLKPEDTAVYYCAVVARAGHKYDYWGQGTQVTVSS”, the “polyreactivity (PSR sort gate)” value is on record as “low polyreactivity”. As for “QVQLVESAGGLVQAGGSLRLSCAASGRTFGYYAMGWYRQAPGKERELVAAISSGGSTNYADSVKGRFTISRDNAKNTVYLQMNSLKPEDTAVYHCAAKAWYYPGRRNYYQYYYWGQGTQVTVSS”, the “polyreactivity (PSR sort gate)” value is reported as “high polyreactivity”.

Take “QVQLVESAGGLVQAGGSLRLSCAASGRTFKYYAMGWYRQAPGKERELVAAITSTGGSTYYADSVKGRFTISRDNEKNTVYLQMNSLKPEDTAVYYCNRYTQYRDRSDNHWGQGTHVTVSS”: the “polyreactivity (PSR sort gate)” value was “high polyreactivity”.

“QVQLVESAGGLVQAGGSLRLSCAASGRTFRKYAMGRYRQAPGKERELVAAISSSGGSTFYADSVKGRFTISRDNAKNTVYLQMNSLKPEDTAVYYCAAEALRRYSFGYWGQGTQVTVSS”: the “polyreactivity (PSR sort gate)” value is “low polyreactivity”. Consider “QVQLVESAGGLVQAGGSLRLSCAASGRTFTDYVMGWYRQAPGKESELVAAITSGGGTTYYADSVKGRFTISRDNAKKTVYLQMNSLKPEDTAVYYGNAVSYRRSRYWGYVYWGQGTQVTVSS”, for which the “polyreactivity (PSR sort gate)” value was “high polyreactivity”.

Take “QVQLVESAGGLVQAGGSLRLSCAASGRTIDSYTMGWYRQAPGKERELVASISKRGGSTYYADSVKERFTISRDNAKNTVYLQMNSLKPQDTAVYYCATKSYYVSYYRYRVDYWGQVTQVTVSS”: the “polyreactivity (PSR sort gate)” value is given as “high polyreactivity”. Regarding “QVQLVESAGGLVQAGGSLRLSCAASGSIFDDYAMGWYRQAPGKERELVAAISDSGGSTSYADSVKGRFTISRDNAKNTVYLQMNSLKPEDTAVYYCNADRDDDYDYWGQGTQVTLSS”, the “polyreactivity (PSR sort gate)” value is “low polyreactivity”.

Consider “QVQLVESAGGLVQAGGSLRLSCAASGSIFERNVIGWYRRAPGKERELVPRISTSGGSTTYYADSVKGRFTISRDTAKNTVYLQMNSLKPEDTAVYYCAAGRGYWWWYGYDYWGQGTQVTVSS”, for which the “polyreactivity (PSR sort gate)” value was “low polyreactivity”. Turning to “QVQLVESAGGLVQAGGSLRLSCAASGSIFGPYAMGWYRQAPGKERELVAVISSGDSTNYADSVKGRFTISRDNAKNTVYLQMNSLKPEDTAVYYCATRYLLYRGGHTLFYHFDYWGLGTQVTVSS”, the “polyreactivity (PSR sort gate)” value was “low polyreactivity”. For “QVQLVESAGGLVQAGGSLRLSCAASGSIFGSYAMGGYRQAPGKERELVAAIYSSGGSTYYADSVKGRFTISRDNAKNTVYLQMNSLKPEDTAVYYCNKYVRYGDGYWGQGTQVTVSS”, the “polyreactivity (PSR sort gate)” value is reported as “high polyreactivity”. On to “QVQLVESAGGLVQAGGSLRLSCAASGSIIYYNAMGWYRQAPGKERELVAAITGSGGSTYYADSVKGRFTISRDNAKNTVYLQMNSLKPEDTAVYYCAADYSLYGWWFRNDYWGQGTQVTVSS”, for which the “polyreactivity (PSR sort gate)” value is “low polyreactivity”.

With “QVQLVESAGGLVQAGGSLRLSCAASGSILPSNAMGWYRQATGKERELVAGLSERGSSTYYADSVKGRFTISRDNAKNTVYLQMNSLKPEDTAVYYCAADDVGRYWSSTHNWARGEYWGQGTHVTVSS”, the “polyreactivity (PSR sort gate)” value is “low polyreactivity”. For “QVQLVESAGGLVQAGGSLRLSCAASGSNFKYYAMGWYRQAPGKERELVAAINGSGGSTYYADSVKGRFTISRDNAKNTVYLQMNSLKPEDTAVYYCARASDYNKVSKSQRMDYWGQGTQVTVSS”, the “polyreactivity (PSR sort gate)” value was “high polyreactivity”. As to “QVQLVESAGGLVQAGGSLRLSCAASGSTFAFYAMGWYRQAPGKERELVAVISLRGSRTYYADSVKGRFTISRDNAKNTVYLQMSSLKPEDTAVYYCATTGYRLRQATRYDYWGQGTQVTVSS”, the “polyreactivity (PSR sort gate)” value is “high polyreactivity”.

On to “QVQLVESAGGLVQAGGSLRLSCAASGSTFDYYAMGWYRQAPGKERELVAAISRTGGRTYYADSVKGRFTISRDNAKNTVYLQMNSLKPEDTAVYYCATRNGRQYSVSYRYYYWGQGTQVTVSS”, for which the “polyreactivity (PSR sort gate)” value is on record as “low polyreactivity”.

As for “QVQLVESAGGLVQAGGSLRLSCAASGSTFTYYAMGWSRQAPGKESELVAAISSGASTYYADSVKGRFTFSRDNAKNTVYLQMNSLKPEDTAVYYCNAKKSIRPYRTGMDYWGQGTQVTVSS”, the “polyreactivity (PSR sort gate)” value was “high polyreactivity”. Regarding “QVQLVESAGGLVQAGGSLRLSCAASGSTFVWYAMGGYRQAPGKERELVDAINFGGTTYYADSVKGRFRISRYNAKNTVYLQLNSLKPEDTAVYYCATEYDYGSWFPDGWGIFDYWGQGTQVTVSS”, the “polyreactivity (PSR sort gate)” value is “low polyreactivity”. The result for “QVQLVESAGGLVQAGGSLRLSCAASGYIYGYYVMGWNRQAPGKERELVAAISGRGGRTYYADSVKGRFTISRDNAKNTVYLQMNSLKPEDTAVYYCAAADLPGTMYYWGQGTQVTVSS” reads “high polyreactivity”; that for “QVQLVESAGGLVQAGGSLRLSCAASRSIYGYYAMGWYRQEPGKERELVAAIRRSGGSTYYADSVKGRFTISRDNAKNTVYLHMNSLKPEDTAVYYCAARVSPYRGFYYWGLGTQVTVSS”, “high polyreactivity”; that for “QVQLVESAGGLVQAGGSLRLSCAATGFIFWGNAMGWDRQAPGKERELVAGIRSLGGTTSYADSVKGRFTISRDNAKNTVYLQMNSLKPEDTAVYYCAAKYSYYTYAGDGGLFSWSYGYWGQGTQVTVSS”, “low polyreactivity”. “QVQLVESAGGLVQAGGSLRLSCAPSGRIFPVNSMGSYRQAPGKERELVATMSSGDITNYADSVKGRFTISRDNATITVYLQMNCLKPEDNAVYYCARDSKRLARYYYWGQGTQVTVSS”: the “polyreactivity (PSR sort gate)” value is listed as “low polyreactivity”.

As for “QVQLVESAGGLVQAGGSLRLSCDASGLTYSYYAMGWYIQAPGKERELVAAISWSGGSTYYADSVNGRFTISRDNAKNTVYLQMNSLKPEDTAVYYCAKYPNRHYWYDYWGQGTQVTVSS”, the “polyreactivity (PSR sort gate)” value is reported as “low polyreactivity”. As for “QVQLVESAGGLVQAGGSLRLSCSAYGIIFSRYAMGWYRQAHGKERELVAAITSGGSTSYADSVKGRFTISRDNAKNTVYLQMNSLKPADTAVYYCAAQFFYRKSGTWAVYRYNYWGQGTQVTVSS”, the “polyreactivity (PSR sort gate)” value is on record as “high polyreactivity”.

For “QVQLVESAGGLVQAGGSLRLSSAASGLIFPLYEMGWYRQAPGKERELVAAINWRGGSTYYADSVKGRFTISRDNAKNTVYLQMNSLKPEDTAVYYCAAGYLHRDSYIYDYWGQGTQVTVSS”, the “polyreactivity (PSR sort gate)” value is “low polyreactivity”. Regarding “QVQLVESAGGLVQAGGSLRLSSGASGSTFNTYAMGWYRQAPGKERELVAAITYNGGSTYYADSVKGRFTISRDNAKNTVYLQMNSLKPEDTAVYYCAAPRSRSRTSRFEYWGQGTQVTVSS”, the “polyreactivity (PSR sort gate)” value is “high polyreactivity”.

In the case of “QVQLVESAGGLVQAGGSLRLTCAASGRTFHHNAMGWYRQPPGKERELFAAITSVGNTYADSVKGRFTISRDNAKNTVYLLMNSMKPEDTAVYYCNARIYDSRFYWSPATSRFEYWGQGTQVTLSS”, the “polyreactivity (PSR sort gate)” value is given as “low polyreactivity”.
